# Measured values taken from article PMC5113729 (Nature structural & molecular biology, 2016).
# T1: Sp Dcp2(1-243), as part of the single chain (fission yeast (Sp), UniProt O13828 1-243)
# T1 sequence (looked up): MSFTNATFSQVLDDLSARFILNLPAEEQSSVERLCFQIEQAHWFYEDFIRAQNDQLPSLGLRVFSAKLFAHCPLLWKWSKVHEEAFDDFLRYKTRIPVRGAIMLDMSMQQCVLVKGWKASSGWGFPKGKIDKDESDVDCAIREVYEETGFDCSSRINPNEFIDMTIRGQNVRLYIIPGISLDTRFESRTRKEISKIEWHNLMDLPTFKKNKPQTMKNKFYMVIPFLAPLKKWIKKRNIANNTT
# B1: Sp Dcp1(1-127) (natural protein, fission yeast (Sp), UniProt Q9P805 1-127, looked up)
# chain: MEDENILRNAVNLQVLKFHYPEIESIIDIASHVAVYQFDVGSQKWLKTSIEGTFFLVKDQRARVGYVILNRNSPENLYLFINHPSNVHLVDRYLIHRTENQHVVGLWMFDPNDMSRIFNIVKESLLR
# Key:
# [1] = target: T1, Sp Dcp2(1-243), as part of the single …; assay: crystal structure
# Sp Dcp1(1-127) = target: B1; assay: crystal structure
binding result [1],binding result (Sp Dcp1(1-127)),Binder
binds,,B1
,binds,Hs PNRC2(91-121) (domain or fragment) not shown
